Residue numbers refer to the chain shown, from its start. Names and notes keep the numbering of the source. Where two headings read alike, the source gives them in different places.
B1: HER20024 (peptide)
chain: HDVGQCDSSNCETWPEYFQH
B2: HER20018 (peptide)
chain: HDVGYCSESACQQWPEYFQH
B3: HER20022 (peptide)
chain: HDVGYCDTPTCATWPEQFDH
B4: anti-HEL nanobody M15, ribosome-displayed on the flow cell (VHH)
VHH: QVQLQESGGGLVQAGGSLRLSCAASGTISSQKLMGWYRQAPGKEREFVAAINDGATTNYADSVKGRFTISRDNAKNTVYLQMNSLKPEDTAVYYCAAYYDVRGYYWGTFGYWGQGTQVTVSS
B5: HER20016 (peptide)
chain: HDVGPCDTSTCAKWPEYFQH
B6: HER20003 (peptide)
chain: HDVAYCSSSRCLTWPEYFQH
B7: HER20006 (peptide)
chain: HDVGWCTSSNCAKWPEYFQH
B8: HER20014 (peptide)
chain: HDVAYCDDPTCAYWPEYFQH
B9: anti-HER2 Fab HER20010 (Fab, V domains shown)
VH: QVQLVQSGAEVKKPGESLKISCKGSGYSFTSYWIAWVRQMPGKGLEYMGLIYPGDSDTKYSPSFQGQVTISVDKSVSTAYLQWSSLKPSDSAVYFCARHDVAYCSSSRCLDWPEYFQHWGQGTLVTVSS
VL: QSVLTQPPSVSAAPGQKVTISCSGSSSNIGNNYVSWYQQLPGTAPKLLIYGHTNRPAGVPDRFSGSKSGTSASLAISGFRSEDEADYYCASWDYTLSGWVFGGGTKLTVL
B10: anti-HER2 Fab HER20015 (Fab, V domains shown)
VH: B9 VH with A102G, S105D, S106T, S107P, R108T, L110D, D111K
VL: B9 VL
B11: anti-HER2 scFv G98A, ribosome-displayed on the flow cell (scFv, V domains shown)
VH: B9 VH with R108N, L110A, D111K
VL: B9 VL
B12: anti-HER2 Fab HER20006 (Fab, V domains shown)
VH: B9 VH with A102G, Y103W, S105T, R108N, L110A, D111K
VL: B9 VL
B13: anti-HER2 Fab HER20008 (Fab, V domains shown)
VH: B9 VH with S105D, S107D, L110A, D111K
VL: B9 VL
B14: anti-HER2 Fab HER20011 (Fab, V domains shown)
VH: B9 VH with A102G, Y103L, R108N, L110A, D111K
VL: B9 VL
B15: anti-HER2 Fab G98A (Fab, V domains shown)
VH: B9 VH with R108N, L110A, D111K
VL: B9 VL
B16: anti-HER2 Fab HER20007 (Fab, V domains shown)
VH: B9 VH with A102G, S105M, R108N, L110A, D111K
VL: B9 VL
B17: anti-HER2 Fab HER20009 (Fab, V domains shown)
VH: B9 VH with D111E
VL: B9 VL
B18: HER20023 (peptide)
chain: HDVGYCDTESCEKWPEYFQH
B19: HER20008 (peptide)
chain: HDVAYCDSDRCAKWPEYFQH
B20: HER20025 (peptide)
chain: HDVGYCDTPTCNKWPEYFQH
B21: HER20026 (peptide)
chain: HDVGYCDSSMCQMWPEYFQH
B22: HER20009 (peptide)
chain: HDVAYCSSSRCLEWPEYFQH
B23: HER20004 (peptide)
chain: HDVGQCDSSNCAKWPEYFQH
B24: HER20021 (peptide)
chain: HDTGYCDTPTCAKWPEYFQH
B25: HER20015 (peptide)
chain: HDVGYCDTPTCDKWPEYFQH
B26: HER20007 (peptide)
chain: HDVGYCMSSNCAKWPEYFQH
B27: HER20002 (peptide)
chain: HDVGYCSSSNCAKWPEYFQH
B28: HER20011 (peptide)
chain: HDVGLCSSSNCAKWPEYFQH
B29: HER20019 (peptide)
chain: HDVGQCDSSNCATWPEYFQH
B30: anti-HEL nanobody M5, ribosome-displayed on the flow cell (VHH)
VHH: QVQLQESGGGLVQAGGSLRLSCAASGSIFYYTDMGWYRQAPGKEREFVASIGYGGITYYADSVKGRFTISRDNAKNTVYLQMNSLKPEDTAVYYCAVQRSFESYGYWGHVYWGQGTQVTVSS
B31: anti-HEL nanobody M6, ribosome-displayed on the flow cell (VHH)
VHH: B30 VHH with F29S, Y30R, Y31D, T32P, G52S, Y53G, G55T, I56T
B32: HER20012 (peptide)
chain: HDVGYCSSHRCETWPEYFQH
B33: HER20013 (peptide)
chain: HDVGYCSTSRCLTWPEYFQH
B34: HER20010 (peptide)
chain: HDVAYCSSSRCLDWPEYFQH
B35: anti-HEL nanobody C2 (VHH)
VHH: QVQLQESGGGLVQAGGSLRLSCAASGNISADASMGWYRQAPGKEREFVAAIARGATTYYADSVKGRFTISRDNAKNTVYLQMNSLKPEDTAVYYCAVDQYDVTKRYIGHIYWGQGTQVTVSS
B36: HER20005 (peptide)
chain: HDVAYCDTPTCAKWPEYFQH
B37: HER20017 (peptide)
chain: HDVGQCDSSNCAAWPEYFQH
B38: anti-HEL nanobody C1 (VHH)
VHH: QVQLQESGGGLVQAGGSLRLSCAASGSIFWAGYMGWYRQAPGKEREFVAAIDYGANTYYADSVKGRFTISRDNAKNTVYLQMNSLKPEDTAVYYCAVDRQPYYRRDNSHLYWGQGTQVTVSS
B39: HER20020 (peptide)
chain: HDVGYCDTPTCDKWPEYFTH

Columns and labels:
[1] = target: T1, HER2 extracellular domain (Homo sapiens, UniProt P04626); test: flow
[2] = target: T1, HER2 extracellular domain; test: Octet
[3] = target: T2, hen egg lysozyme (HEL), biotinylated (hen, UniProt P00698 19-147, biotin); test: deep screening KDapp
[4] = target: T3, human epidermal growth factor receptor 2 (HER2), biotinylated (human, UniProt P04626 23-652, biotin); test: BLI
[5] = target: T3, human epidermal growth factor receptor …
[6] = target: T3, human epidermal growth factor receptor …; test: SPR
[7] = target: T3, human epidermal growth factor receptor …; test: BLI; remark: listed apart in the source
[8] = target: T3, human epidermal growth factor receptor …; test: SPR; remark: listed apart in the source
[9] = target: T2, hen egg lysozyme (HEL), biotinylated; test: BLI

T2 sequence (P00698 19-147): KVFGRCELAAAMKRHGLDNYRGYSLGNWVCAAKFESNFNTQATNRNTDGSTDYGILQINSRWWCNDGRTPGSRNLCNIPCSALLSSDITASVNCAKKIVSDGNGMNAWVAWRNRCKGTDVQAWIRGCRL

Binder | apparent Kd (screen) [1] | Kd [2] | also measured
B1 | 17.9 nM | – | –
B2 | 24.4 nM | 2.26 nM | –
B3 | 14.8 nM | 0.183 nM | –
B4 | – | – | Kd [3]: 64.4 nM
B5 | 106 nM | 1.41 nM | –
B6 | – | 2.88 nM | –
B7 | 151 nM | 0.85 nM | –
B8 | 65.9 nM | 0.996 nM | –
B9 | – | – | Kd [4]: 1.06 nM
B10 | – | – | Kd [4]: 0.2 nM
B11 | – | – | Kd [5]: 24 nM; Kd [6]: 320 nM
B12 | – | – | Kd [7]: 0.85 nM
B13 | – | – | Kd [4]: 2.68 nM
B14 | – | – | Kd [4]: 5.25 nM
B15 | – | – | Kd [8]: 320 nM
B16 | – | – | Kd [4]: 2.08 nM
B17 | – | – | Kd [4]: 1.04 nM
B18 | 31.6 nM | 0.578 nM | –
B19 | 44.5 nM | 2.68 nM | –
B20 | 8.78 nM | – | –

Binder | apparent Kd (screen) [1] | Kd [2] | also measured
B21 | 4.78 nM | 0.465 nM | –
B22 | 11.2 nM | 1.04 nM | –
B23 | – | 3.44 nM | –
B24 | 17.7 nM | 0.215 nM | –
B25 | 31 nM | 0.2 nM | –
B26 | 41.1 nM | 2.08 nM | –
B27 | 19.4 nM | 1.65 nM | –
B28 | 40.6 nM | – | –
B29 | 19.6 nM | 0.79 nM | –
B30 | – | – | Kd [3]: 106 nM
B31 | – | – | Kd [3]: 63.6 nM
B32 | 74.2 nM | 0.591 nM | –
B33 | 10 nM | – | –
B34 | 17.7 nM | 1.06 nM | –
B35 | – | – | Kd [9]: 59.8 nM; Kd [3]: 11900 nM
B36 | – | 1.86 nM | –
B37 | 1350 nM | 1.46 nM | –
B38 | – | – | Kd [9]: 67.4 nM; Kd [3]: 11900 nM
B39 | 14.3 nM | 0.294 nM | –
